Holding throughout (assay): cryo-EM structure; single particle analysis of extended AlgoCIS particles assembled in A. machipongonensis and purified whole, in buffer B (20 mM Tris pH 7.5, 150 mM NaCl); cap 2.5 Å, extended sheath-tube 2.4 Å, baseplate 2.7-2.9 Å, whole particle 4.4 Å
Assay [1] deals with Alg8 (central spike protein of AlgoCIS) (Algoriphagus machipongonensis PR1 (endogenous in A. machipongonensis)).
Assay [2] deals with Alg16B (cap adaptor protein of AlgoCIS) (Algoriphagus machipongonensis PR1 (endogenous in A. machipongonensis)).
Assay [3] deals with Alg6 (plug protein of AlgoCIS) (Algoriphagus machipongonensis PR1 (endogenous in A. machipongonensis)).
Assay [4] addresses Alg16A (cap protein of AlgoCIS) (Algoriphagus machipongonensis PR1 (endogenous in A. machipongonensis)).
Assay [5] has as its target Alg11 (baseplate wedge protein of AlgoCIS, forms the spike cage) (Algoriphagus machipongonensis PR1 (endogenous in A. machipongonensis)).
Assay [6] addresses Alg1 (inner tube protein of AlgoCIS) (Algoriphagus machipongonensis PR1 (endogenous in A. machipongonensis)).

Data on six substances can be found in publication PMC8894135.

Regarding “Alg8 (central spike protein of AlgoCIS) (natural protein)”, the stoichiometry N (as a rule, the number of molecules, sites or subunits per partner or assembly) in assay [1] turned out to be 3.

The substance “Alg16B (cap adaptor protein of AlgoCIS) (natural protein)” came in with a stoichiometry N in assay [2] of 6.

In assay [3], “Alg6 (plug protein of AlgoCIS) (natural protein)” came in with a stoichiometry N of 3.

As to “Alg16A (cap protein of AlgoCIS) (natural protein)”, the stoichiometry N in assay [4] is 6.

“Alg11 (baseplate wedge protein of AlgoCIS, forms the spike cage) (natural protein)” returned a stoichiometry N in assay [5] of 6.

“Alg1 (inner tube protein of AlgoCIS) (natural protein)” displayed a stoichiometry N in assay [6] of 6.
